Results reported in publication PMC10041110.

Target: Chikungunya virus nonstructural protein 1 (nsP1) capping pore (Chikungunya virus)
Assay: cryo-EM structure

Chikungunya virus nonstructural protein 1 (nsP1) capping pore (enzyme)
stoichiometry N: 12
